Experimental data reported in US20250341513A1, “Bordetella T Cells Epitopes, Megapools and Uses Thereof” (LA JOLLA INSTITUTE FOR IMMUNOLOGY, priority 2022, published 2025).

Test system: CD4+ T cells
Experiment: BP genome-wide peptide library screening by ex vivo AIM assay; epitope and antigen (ORF) reactivity and donor recognition
Format: cell-based, human
Conditions: for frequency of donor recognition: entire cohort (n=40); for magnitude, % of total response: sum of reactivity of individual epitopes per ORF/antigen across entire cohort (n=40), FIG. 3; for % of Donor response / % of Total magnitude: immunodominant antigens (ORFs); for % of Donor response: frequency of donors recognising the antigen; for % of Total magnitude: share of total CD4+ T cell response magnitude in the genome-wide screen

filamentous hemagglutinin [FHA]
frequency of donor recognition: 45.0 % of donors
magnitude, % of total response: 2.12 % of total response

B1: Membrane protein insertase YidC (protein, UniProt P65622 1-563, looked up)
Membrane protein insertase …: MDIRRTVLWMIFSFSLLLLWNNWQIHNGKPSLFGGPAPEAAATQQPKADANGTAASSTASIPSSPAAAPAAASVPGAAAPAAAKSEQVVITTDVLRLTFDSNGAQLIRAELLKYPSSSQSDKPTVLMDRSADLVYVAQTGVVGAPQGESFPTHQTPFHLVSSERSLTGDTLDVVFEAESGGLKVTKTYTLHRGRYDVDVRHAMANTGGAPLNPALYLQLERDGTDPAGTSSFYHTFTGVAVYSEQDKFQKVTFSDIEKKKGTYIKQADNGWIGIVQHYFATAWIPAQGKQRTNELLQVQQNLYAARTIEAVGTIAPGSSANVDAHLWVGPQDQKAMAAVAPGLELVVDYGWLTIIAKPLFTLMTWLHGLLGNWGWTIVALTVIIKAVFFPLAAASYRSMARMKQVAPRLQALKEKYGDDRQKLNQAMMEMYRTEKINPLGGCLPMVVQIPVFIALYWVLLASVEMRGAPWILWVHDLSVRDPFFILPAIMMATMFLQIKLNPTPPDPVQAKVMMIMPLVFGGMMFFFPAGLVLYWCVNNTLSIAQQWTITRNLERQAAAAANR
% of Donor response: 17.5%
% of Total magnitude: 1.35%

B2: BrkA autotransporter (protein, UniProt Q45340 43-1010, looked up)
BrkA autotransporter: QAPQPPVAGAPHAQDAGQEGEFDHRDNTLIAVFDDGVGINLDDDPDELGETAPPTLKDIHISVEHKNPMSKPAIGVRVSGAGRALTLAGSTIDATEGGIPAVVRRGGTLELDGVTVAGGEGMEPMTVSDAGSRLSVRGGVLGGEAPGVGLVRAAQGGQASIIDATLQSILGPALIADGGSISVAGGSIDMDMGPGFPPPPPPLPGAPLAAHPPLDRVAAVHAGQDGKVTLREVALRAHGPQATGVYAYMPGSEITLQGGTVSVQGDDGAGVVAGAGLLDALPPGGTVRLDGTTVSTDGANTDAVLVRGDAARAEVVNTVLRTAKSLAAGVSAQHGGRVTLRQTRIETAGAGAEGISVLGFEPQSGSGPASVDMQGGSITTTGNRAAGIALTHGSARLEGVAVRAEGSGSSAAQLANGTLVVSAGSLASAQSGAISVTDTPLKLMPGALASSTVSVRLTDGATAQGGNGVFLQQHSTIPVAVALESGALARGDIVADGNKPLDAGISLSVASGAAWHGATQVLQSATLGKGGTWVVNADSRVQDMSMRGGRVEFQAPAPEASYKTLTLQTLDGNGVFVLNTNVAAGQNDQLRVTGRADGQHRVLVRNAGGEADSRGARLGLVHTQGQGNATFRLANVGKAVDLGTWRYSLAEDPKTHVWSLQRAGQALSGAANAAVNAADLSSIALAESNALDKRLGELRLRADAGGPWARTFSERQQISNRHARAYDQTVSGLEIGLDRGWSASGGRWYAGGLLGYTYADRTYPGDGGGKVKGLHVGGYAAYVGDGGYYLDTVLRLGRYDQQYNIAGTDGGRVTADYRTSGAAWSLEGGRRFELPNDWFAEPQAEVMLWRTSGKRYRASNGLRVKVDANTATLGRLGLRFGRRIALAGGNIVQPYARLGWTQEFKSTGDVRTNGIGHAGAGRHGRVELGAGVDAALGKGHNLYASYEYAAGDRINIPWSFHAGYRYSF
% of Donor response: 20%
% of Total magnitude: 0.44%

B3: Fim 2: fimbrial protein 2, aP vaccine antigen (protein, UniProt P05788 27-207, looked up)
Serotype 2 fimbrial subunit: DDGTIVITGTITDTTCVIEDPSGPNHTKVVQLPKISKNALKANGDQAGRTPFIIKLKDCPSSLGNGVKAYFEPGPTTDYSTGDLRAYKMVYATNPQTQLSNITAATEAQGVQVRISNLNDSKITMGANEATQQAAGFDPEVQTGGTSRTVTMRYLASYVKKNGDVEASAITTYVGFSVVYP
frequency of donor recognition: 5 % of donors
magnitude, % of total response: 0.09 % of total response

B4: S-adenosylmethionine--tRNA ribosyltransferase-isomerase QueA (protein, UniProt Q7VZ81 1-347, looked up)
S-adenosylmethionine:tRNA …: MPTPLTLADFDYHLPPELIAQSPAAERGGSRLLHLDAASRLHDRRFPDLAGLLRPHDLLVFNDTRVIKARLTGQKATGGKVEVLVERITAPDRALAHVRASKSPGPGMRLRLAEAFEAEVLGREGELFDLRFPAPVLDLLDAHGATPLPPYITHAADATDERRYQTVYAREPGAVAAPTAGLHFDQPMLEQLAAQGVQRAFVTLHVGAGTFQPVRVQNLAEHIMHAEWYTVPEATVAAIARARAHGGRIVAVGTTSVRALESAAAQAQDGPLAAAQGDTRLFITPGYRYRAVDALLTNFHLPQSTLLMLVSALAGVEPIRRAYAHAVAERYRFFSYGDAMFIETPAP
% of Donor response: 17.5%
% of Total magnitude: 0.27%

B5: Fim 3: fimbrial protein 3, aP vaccine antigen (protein, UniProt P17835 26-204, looked up)
Serotype 3 fimbrial subunit: NDGTIVITGSISDQTCVIEEPSTLNHIKVVQLPKISKNALRNDGDTAGATPFDIKLKECPQALGALKLYFEPGITTNYDTGDLIAYKQTYNASGNGNLSTVSSATKAKGVEFRLANLNGQHIRMGTDKTTQAAQTFTGKVTNGSKSYTLRYLASYVKKPKEDVDAAQITSYVGFSVVYP
frequency of donor recognition: 12.5 % of donors
magnitude, % of total response: 0.24 % of total response

B6: pertactin (protein, UniProt P14283 35-910, looked up)
Pertactin autotransporter: DWNNQSIVKTGERQHGIHIQGSDPGGVRTASGTTIKVSGRQAQGILLENPAAELQFRNGSVTSSGQLSDDGIRRFLGTVTVKAGKLVADHATLANVGDTWDDDGIALYVAGEQAQASIADSTLQGAGGVQIERGANVTVQRSAIVDGGLHIGALQSLQPEDLPPSRVVLRDTNVTAVPASGAPAAVSVLGASELTLDGGHITGGRAAGVAAMQGAVVHLQRATIRRGDAPAGGAVPGGAVPGGAVPGGFGPGGFGPVLDGWYGVDVSGSSVELAQSIVEAPELGAAIRVGRGARVTVSGGSLSAPHGNVIETGGARRFAPQAAPLSITLQAGAHAQGKALLYRVLPEPVKLTLTGGADAQGDIVATELPSIPGTSIGPLDVALASQARWTGATRAVDSLSIDNATWVMTDNSNVGALRLASDGSVDFQQPAEAGRFKVLTVNTLAGSGLFRMNVFADLGLSDKLVVMQDASGQHRLWVRNSGSEPASANTLLLVQTPLGSAATFTLANKDGKVDIGTYRYRLAANGNGQWSLVGAKAPPAPKPAPQPGPQPPQPPQPQPEAPAPQPPAGRELSAAANAAVNTGGVGLASTLWYAESNALSKRLGELRLNPDAGGAWGRGFAQRQQLDNRAGRRFDQKVAGFELGADHAVAVAGGRWHLGGLAGYTRGDRGFTGDGGGHTDSVHVGGYATYIADSGFYLDATLRASRLENDFKVAGSDGYAVKGKYRTHGVGASLEAGRRFTHADGWFLEPQAELAVFRAGGGAYRAANGLRVRDEGGSSVLGRLGLEVGKRIELAGGRQVQPYIKASVLQEFDGAGTVHTNGIAHRTELRGTRAELGLGMAAALGRGHSLYASYEYSKGPKLAMPWTFHAGYRYSW
notes: aP vaccine antigen of B. pertussis
frequency of donor recognition: 40 % of donors
magnitude, % of total response: 1.33 % of total response

B7: Virulence sensor protein BvgS (protein, UniProt P16575 33-1238, looked up)
Virulence sensor protein BvgS: SQELTLVGKAAVPDVEVALDGDDWRWLARKRVLTLGVYAPDIPPFDVTYGERYEGLTADYMAIIAHNLGMQAKVLRYPTREQALSALESGQIDLIGTVNGTDGRQQSLRLSVPYAADHPVIVMPIGARHVPASNLAGQRLAVDINYLPKETLARAYPQATLHYFPSSEQALAAVAYGQADVFIGDALTTSHLVSQSYFNDVRVVAPAHIATGGESFGVRADNTRLLRVVNAVLEAIPPSEHRSLIYRWGLGSSISLDFAHPAYSAREQQWMADHPVVKVAVLNLFAPFTLFRTDEQFGGISAAVLQLLQLRTGLDFEIIGVDTVEELIAKLRSGEADMAGALFVNSARESFLSFSRPYVRNGMVIVTRQDPDAPVDADHLDGRTVALVRNSAAIPLLQRRYPQAKVVTADNPSEAMLMVANGQADAVVQTQISASYYVNRYFAGKLRIASALDLPPAEIALATTRGQTELMSILNKALYSISNDELASIISRWRGSDGDPRTWYAYRNEIYLLIGLGLLSALLFLSWIVYLRRQIRQRKRAERALNDQLEFMRVLIDGTPNPIYVRDKEGRMLLCNDAYLDTFGVTADAVLGKTIPEANVVGDPALAREMHEFLLTRVAAEREPRFEDRDVTLHGRTRHVYQWTIPYGDSLGELKGIIGGWIDITERAELLRKLHDAKESADAANRAKTTFLATMSHEIRTPMNAIIGMLELALLRPTDQEPDRQSIQVAYDSARSLLELIGDILDIAKIEAGKFDLAPVRTALRVLPEGAIRVFDGLARQKGIELVLKTDIVGVDDVLIDPLRMKQVLSNLVGNAIKFTTEGQVVLAVTARPDGDAAHVQFSVSDTGCGISEADQRQLFKPFSQVGGSAEAGPAPGTGLGLSISRRLVELMGGTLVMRSAPGVGTTVSVDLRLTMVEKSVQAAPPAAATAATPSKPQVSLRVLVVDDHKPNLMLLRQQLDYLGQRVIAADSGEAALALWREHAFDVVITDCNMPGISGYELARRIRAAEAAPGYGRTRCILFGFTASAQMDEAQRCRAAGMDDCLFKPIGVDALRQRLNEAVARAALPTPPSPQAAAPATDDATPTAFSAESILALTQNDEALIRQLLEEVIRTNRADVDQLQKLHQQADWPKVSDMAHRLAGGARVVDAKAMIDTVLALEKKAQGQAGPSPEIDGLVRTLAAQSAALETQLRAWLEQRPHQDQP
% of Donor response: 15%
% of Total magnitude: 0.76%
